Source: patent US20210388087A1

Molecular target: Human CD137 ECD (human)
Assay: SPR, vs parent H183/L072

Human CD137 ECD (human), sequence (chain, as listed by the source limits assumed): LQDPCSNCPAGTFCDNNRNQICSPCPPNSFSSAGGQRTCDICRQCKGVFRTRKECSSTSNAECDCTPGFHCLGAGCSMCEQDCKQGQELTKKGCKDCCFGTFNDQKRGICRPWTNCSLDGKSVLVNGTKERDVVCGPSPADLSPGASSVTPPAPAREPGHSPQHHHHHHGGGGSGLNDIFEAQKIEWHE

Binder | fold change of affinity
dBBDu183H H93V / dBBDu072L (antibody, name in Kabat numbering, V domains shown) VH: QVQLVESGGGLVQPGRSLRLSCAASGFTFSNAWMHWVRQAPGKGLEWVAQIKDKGNAYAAYYAPSVKGRFTISRDDSKNSIYLQMNSLKTEDTAVYYCVYVHYASASTVLPAFGVDAWGQGTTVTVSS VL: DIVMTQSPLSLPVTPGEPASISCQASQELVHMNRNTYLHWYQQKPGQAPRLLIYKVSNRFPGVPDRFSGSGSGTDFTLKISRVEAEDVGVYYCAQGTSVPFTFGQGTKLEIK | 0 fold
dBBDu183H S99V / dBBDu072L (antibody, name in Kabat numbering, V domains shown) VH: QVQLVESGGGLVQPGRSLRLSCAASGFTFSNAWMHWVRQAPGKGLEWVAQIKDKGNAYAAYYAPSVKGRFTISRDDSKNSIYLQMNSLKTEDTAVYYCHYVHYAVASTVLPAFGVDAWGQGTTVTVSS VL: DIVMTQSPLSLPVTPGEPASISCQASQELVHMNRNTYLHWYQQKPGQAPRLLIYKVSNRFPGVPDRFSGSGSGTDFTLKISRVEAEDVGVYYCAQGTSVPFTFGQGTKLEIK | 0 fold
dBBDu183H G100hV / dBBDu072L (antibody, name in Kabat numbering, V domains shown) VH: QVQLVESGGGLVQPGRSLRLSCAASGFTFSNAWMHWVRQAPGKGLEWVAQIKDKGNAYAAYYAPSVKGRFTISRDDSKNSIYLQMNSLKTEDTAVYYCHYVHYASASTVLPAFVVDAWGQGTTVTVSS VL: DIVMTQSPLSLPVTPGEPASISCQASQELVHMNRNTYLHWYQQKPGQAPRLLIYKVSNRFPGVPDRFSGSGSGTDFTLKISRVEAEDVGVYYCAQGTSVPFTFGQGTKLEIK | 0 fold
dBBDu183H A100V / dBBDu072L (antibody, name in Kabat numbering, V domains shown) VH: QVQLVESGGGLVQPGRSLRLSCAASGFTFSNAWMHWVRQAPGKGLEWVAQIKDKGNAYAAYYAPSVKGRFTISRDDSKNSIYLQMNSLKTEDTAVYYCHYVHYASVSTVLPAFGVDAWGQGTTVTVSS VL: DIVMTQSPLSLPVTPGEPASISCQASQELVHMNRNTYLHWYQQKPGQAPRLLIYKVSNRFPGVPDRFSGSGSGTDFTLKISRVEAEDVGVYYCAQGTSVPFTFGQGTKLEIK | 0 fold
dBBDu183H A100fV / dBBDu072L (antibody, name in Kabat numbering, V domains shown) VH: QVQLVESGGGLVQPGRSLRLSCAASGFTFSNAWMHWVRQAPGKGLEWVAQIKDKGNAYAAYYAPSVKGRFTISRDDSKNSIYLQMNSLKTEDTAVYYCHYVHYASASTVLPVFGVDAWGQGTTVTVSS VL: DIVMTQSPLSLPVTPGEPASISCQASQELVHMNRNTYLHWYQQKPGQAPRLLIYKVSNRFPGVPDRFSGSGSGTDFTLKISRVEAEDVGVYYCAQGTSVPFTFGQGTKLEIK | 0 fold
dBBDu183H D101V / dBBDu072L (antibody, name in Kabat numbering, V domains shown) VH: QVQLVESGGGLVQPGRSLRLSCAASGFTFSNAWMHWVRQAPGKGLEWVAQIKDKGNAYAAYYAPSVKGRFTISRDDSKNSIYLQMNSLKTEDTAVYYCHYVHYASASTVLPAFGVVAWGQGTTVTVSS VL: DIVMTQSPLSLPVTPGEPASISCQASQELVHMNRNTYLHWYQQKPGQAPRLLIYKVSNRFPGVPDRFSGSGSGTDFTLKISRVEAEDVGVYYCAQGTSVPFTFGQGTKLEIK | 0 fold
dBBDu183H H96G / dBBDu072L (antibody, name in Kabat numbering, V domains shown) VH: QVQLVESGGGLVQPGRSLRLSCAASGFTFSNAWMHWVRQAPGKGLEWVAQIKDKGNAYAAYYAPSVKGRFTISRDDSKNSIYLQMNSLKTEDTAVYYCHYVGYASASTVLPAFGVDAWGQGTTVTVSS VL: DIVMTQSPLSLPVTPGEPASISCQASQELVHMNRNTYLHWYQQKPGQAPRLLIYKVSNRFPGVPDRFSGSGSGTDFTLKISRVEAEDVGVYYCAQGTSVPFTFGQGTKLEIK | 0 fold
dBBDu183H A102V / dBBDu072L (antibody, name in Kabat numbering, V domains shown) VH: QVQLVESGGGLVQPGRSLRLSCAASGFTFSNAWMHWVRQAPGKGLEWVAQIKDKGNAYAAYYAPSVKGRFTISRDDSKNSIYLQMNSLKTEDTAVYYCHYVHYASASTVLPAFGVDVWGQGTTVTVSS VL: DIVMTQSPLSLPVTPGEPASISCQASQELVHMNRNTYLHWYQQKPGQAPRLLIYKVSNRFPGVPDRFSGSGSGTDFTLKISRVEAEDVGVYYCAQGTSVPFTFGQGTKLEIK | 0 fold
dBBDu183H A98V / dBBDu072L (antibody, name in Kabat numbering, V domains shown) VH: QVQLVESGGGLVQPGRSLRLSCAASGFTFSNAWMHWVRQAPGKGLEWVAQIKDKGNAYAAYYAPSVKGRFTISRDDSKNSIYLQMNSLKTEDTAVYYCHYVHYVSASTVLPAFGVDAWGQGTTVTVSS VL: DIVMTQSPLSLPVTPGEPASISCQASQELVHMNRNTYLHWYQQKPGQAPRLLIYKVSNRFPGVPDRFSGSGSGTDFTLKISRVEAEDVGVYYCAQGTSVPFTFGQGTKLEIK | 0 fold
dBBDu183H A98G / dBBDu072L (antibody, name in Kabat numbering, V domains shown) VH: QVQLVESGGGLVQPGRSLRLSCAASGFTFSNAWMHWVRQAPGKGLEWVAQIKDKGNAYAAYYAPSVKGRFTISRDDSKNSIYLQMNSLKTEDTAVYYCHYVHYGSASTVLPAFGVDAWGQGTTVTVSS VL: DIVMTQSPLSLPVTPGEPASISCQASQELVHMNRNTYLHWYQQKPGQAPRLLIYKVSNRFPGVPDRFSGSGSGTDFTLKISRVEAEDVGVYYCAQGTSVPFTFGQGTKLEIK | 0 fold
dBBDu183H S100aG / dBBDu072L (antibody, name in Kabat numbering, V domains shown) VH: QVQLVESGGGLVQPGRSLRLSCAASGFTFSNAWMHWVRQAPGKGLEWVAQIKDKGNAYAAYYAPSVKGRFTISRDDSKNSIYLQMNSLKTEDTAVYYCHYVHYASAGTVLPAFGVDAWGQGTTVTVSS VL: DIVMTQSPLSLPVTPGEPASISCQASQELVHMNRNTYLHWYQQKPGQAPRLLIYKVSNRFPGVPDRFSGSGSGTDFTLKISRVEAEDVGVYYCAQGTSVPFTFGQGTKLEIK | 0 fold
dBBDu183H H93G / dBBDu072L (antibody, name in Kabat numbering, V domains shown) VH: QVQLVESGGGLVQPGRSLRLSCAASGFTFSNAWMHWVRQAPGKGLEWVAQIKDKGNAYAAYYAPSVKGRFTISRDDSKNSIYLQMNSLKTEDTAVYYCGYVHYASASTVLPAFGVDAWGQGTTVTVSS VL: DIVMTQSPLSLPVTPGEPASISCQASQELVHMNRNTYLHWYQQKPGQAPRLLIYKVSNRFPGVPDRFSGSGSGTDFTLKISRVEAEDVGVYYCAQGTSVPFTFGQGTKLEIK | 0 fold
dBBDu183H P100eV / dBBDu072L (antibody, name in Kabat numbering, V domains shown) VH: QVQLVESGGGLVQPGRSLRLSCAASGFTFSNAWMHWVRQAPGKGLEWVAQIKDKGNAYAAYYAPSVKGRFTISRDDSKNSIYLQMNSLKTEDTAVYYCHYVHYASASTVLVAFGVDAWGQGTTVTVSS VL: DIVMTQSPLSLPVTPGEPASISCQASQELVHMNRNTYLHWYQQKPGQAPRLLIYKVSNRFPGVPDRFSGSGSGTDFTLKISRVEAEDVGVYYCAQGTSVPFTFGQGTKLEIK | 0 fold

Second part, the binder after the results:

fold change of affinity | Binder
0 fold | dBBDu183H Y97V / dBBDu072L (antibody, name in Kabat numbering, V domains shown) VH: QVQLVESGGGLVQPGRSLRLSCAASGFTFSNAWMHWVRQAPGKGLEWVAQIKDKGNAYAAYYAPSVKGRFTISRDDSKNSIYLQMNSLKTEDTAVYYCHYVHVASASTVLPAFGVDAWGQGTTVTVSS VL: DIVMTQSPLSLPVTPGEPASISCQASQELVHMNRNTYLHWYQQKPGQAPRLLIYKVSNRFPGVPDRFSGSGSGTDFTLKISRVEAEDVGVYYCAQGTSVPFTFGQGTKLEIK
0 fold | dBBDu183H V95G / dBBDu072L (antibody, name in Kabat numbering, V domains shown) VH: QVQLVESGGGLVQPGRSLRLSCAASGFTFSNAWMHWVRQAPGKGLEWVAQIKDKGNAYAAYYAPSVKGRFTISRDDSKNSIYLQMNSLKTEDTAVYYCHYGHYASASTVLPAFGVDAWGQGTTVTVSS VL: DIVMTQSPLSLPVTPGEPASISCQASQELVHMNRNTYLHWYQQKPGQAPRLLIYKVSNRFPGVPDRFSGSGSGTDFTLKISRVEAEDVGVYYCAQGTSVPFTFGQGTKLEIK
0 fold | dBBDu183H Y97G / dBBDu072L (antibody, name in Kabat numbering, V domains shown) VH: QVQLVESGGGLVQPGRSLRLSCAASGFTFSNAWMHWVRQAPGKGLEWVAQIKDKGNAYAAYYAPSVKGRFTISRDDSKNSIYLQMNSLKTEDTAVYYCHYVHGASASTVLPAFGVDAWGQGTTVTVSS VL: DIVMTQSPLSLPVTPGEPASISCQASQELVHMNRNTYLHWYQQKPGQAPRLLIYKVSNRFPGVPDRFSGSGSGTDFTLKISRVEAEDVGVYYCAQGTSVPFTFGQGTKLEIK
0 fold | dBBDu183H Y94V / dBBDu072L (antibody, name in Kabat numbering, V domains shown) VH: QVQLVESGGGLVQPGRSLRLSCAASGFTFSNAWMHWVRQAPGKGLEWVAQIKDKGNAYAAYYAPSVKGRFTISRDDSKNSIYLQMNSLKTEDTAVYYCHVVHYASASTVLPAFGVDAWGQGTTVTVSS VL: DIVMTQSPLSLPVTPGEPASISCQASQELVHMNRNTYLHWYQQKPGQAPRLLIYKVSNRFPGVPDRFSGSGSGTDFTLKISRVEAEDVGVYYCAQGTSVPFTFGQGTKLEIK
0 fold | dBBDu183H S100aV / dBBDu072L (antibody, name in Kabat numbering, V domains shown) VH: QVQLVESGGGLVQPGRSLRLSCAASGFTFSNAWMHWVRQAPGKGLEWVAQIKDKGNAYAAYYAPSVKGRFTISRDDSKNSIYLQMNSLKTEDTAVYYCHYVHYASAVTVLPAFGVDAWGQGTTVTVSS VL: DIVMTQSPLSLPVTPGEPASISCQASQELVHMNRNTYLHWYQQKPGQAPRLLIYKVSNRFPGVPDRFSGSGSGTDFTLKISRVEAEDVGVYYCAQGTSVPFTFGQGTKLEIK
0 fold | dBBDu183H T100bG / dBBDu072L (antibody, name in Kabat numbering, V domains shown) VH: QVQLVESGGGLVQPGRSLRLSCAASGFTFSNAWMHWVRQAPGKGLEWVAQIKDKGNAYAAYYAPSVKGRFTISRDDSKNSIYLQMNSLKTEDTAVYYCHYVHYASASGVLPAFGVDAWGQGTTVTVSS VL: DIVMTQSPLSLPVTPGEPASISCQASQELVHMNRNTYLHWYQQKPGQAPRLLIYKVSNRFPGVPDRFSGSGSGTDFTLKISRVEAEDVGVYYCAQGTSVPFTFGQGTKLEIK
0 fold | dBBDu183H T100bV / dBBDu072L (antibody, name in Kabat numbering, V domains shown) VH: QVQLVESGGGLVQPGRSLRLSCAASGFTFSNAWMHWVRQAPGKGLEWVAQIKDKGNAYAAYYAPSVKGRFTISRDDSKNSIYLQMNSLKTEDTAVYYCHYVHYASASVVLPAFGVDAWGQGTTVTVSS VL: DIVMTQSPLSLPVTPGEPASISCQASQELVHMNRNTYLHWYQQKPGQAPRLLIYKVSNRFPGVPDRFSGSGSGTDFTLKISRVEAEDVGVYYCAQGTSVPFTFGQGTKLEIK
0 fold | dBBDu183H Y94G / dBBDu072L (antibody, name in Kabat numbering, V domains shown) VH: QVQLVESGGGLVQPGRSLRLSCAASGFTFSNAWMHWVRQAPGKGLEWVAQIKDKGNAYAAYYAPSVKGRFTISRDDSKNSIYLQMNSLKTEDTAVYYCHGVHYASASTVLPAFGVDAWGQGTTVTVSS VL: DIVMTQSPLSLPVTPGEPASISCQASQELVHMNRNTYLHWYQQKPGQAPRLLIYKVSNRFPGVPDRFSGSGSGTDFTLKISRVEAEDVGVYYCAQGTSVPFTFGQGTKLEIK
